Data: patent publication US6682898B2, “High-throughput screening assays for modulators of STAT4 activity” (Tularik Inc., priority 1998, dated 2004)
Non-standard residues stand in square brackets, D forms with d. No end group written: not given here. pY = N[C@@H](Cc1ccc(OP(=O)(O)O)cc1)C(=O)O

Assays:
STAT6 = target: T1, STAT6 (UniProt P42226 1-847, limits assumed); experiment: binding affinity of the phosphorylated receptor peptide for STAT6; method not stated at the table (paragraph 32 speaks of IC50)
T1 construct: also called STAT6 polypeptide
T1 sequence (looked up): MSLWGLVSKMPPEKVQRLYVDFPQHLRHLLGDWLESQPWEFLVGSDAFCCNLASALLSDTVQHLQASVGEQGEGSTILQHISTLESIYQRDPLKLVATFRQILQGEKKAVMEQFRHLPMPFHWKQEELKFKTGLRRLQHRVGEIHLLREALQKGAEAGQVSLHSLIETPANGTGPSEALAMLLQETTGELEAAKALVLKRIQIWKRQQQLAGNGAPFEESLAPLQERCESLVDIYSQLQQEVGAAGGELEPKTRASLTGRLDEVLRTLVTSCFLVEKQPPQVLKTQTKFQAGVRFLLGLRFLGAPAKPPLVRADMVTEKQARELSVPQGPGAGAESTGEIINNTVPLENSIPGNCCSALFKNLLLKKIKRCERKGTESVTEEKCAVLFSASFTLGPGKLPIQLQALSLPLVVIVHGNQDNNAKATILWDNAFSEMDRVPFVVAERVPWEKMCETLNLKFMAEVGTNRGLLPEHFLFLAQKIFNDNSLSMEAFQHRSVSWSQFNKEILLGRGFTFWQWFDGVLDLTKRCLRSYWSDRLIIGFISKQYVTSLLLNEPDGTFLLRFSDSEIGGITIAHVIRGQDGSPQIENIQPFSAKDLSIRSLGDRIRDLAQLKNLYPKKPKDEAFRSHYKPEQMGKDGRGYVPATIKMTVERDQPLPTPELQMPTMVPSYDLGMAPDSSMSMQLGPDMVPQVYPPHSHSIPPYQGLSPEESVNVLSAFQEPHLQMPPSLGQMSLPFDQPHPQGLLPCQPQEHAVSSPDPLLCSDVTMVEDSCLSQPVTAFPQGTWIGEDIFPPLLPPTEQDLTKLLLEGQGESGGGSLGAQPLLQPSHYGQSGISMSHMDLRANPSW

STAT4 [1] = target: T2, STAT4 (Homo sapiens, UniProt Q14765); experiment: Chemiluminescence binding assay, signal to noise, STAT4; set-up: key: high signal relative to background = + + + +
T2 sequence (Q14765 1-748): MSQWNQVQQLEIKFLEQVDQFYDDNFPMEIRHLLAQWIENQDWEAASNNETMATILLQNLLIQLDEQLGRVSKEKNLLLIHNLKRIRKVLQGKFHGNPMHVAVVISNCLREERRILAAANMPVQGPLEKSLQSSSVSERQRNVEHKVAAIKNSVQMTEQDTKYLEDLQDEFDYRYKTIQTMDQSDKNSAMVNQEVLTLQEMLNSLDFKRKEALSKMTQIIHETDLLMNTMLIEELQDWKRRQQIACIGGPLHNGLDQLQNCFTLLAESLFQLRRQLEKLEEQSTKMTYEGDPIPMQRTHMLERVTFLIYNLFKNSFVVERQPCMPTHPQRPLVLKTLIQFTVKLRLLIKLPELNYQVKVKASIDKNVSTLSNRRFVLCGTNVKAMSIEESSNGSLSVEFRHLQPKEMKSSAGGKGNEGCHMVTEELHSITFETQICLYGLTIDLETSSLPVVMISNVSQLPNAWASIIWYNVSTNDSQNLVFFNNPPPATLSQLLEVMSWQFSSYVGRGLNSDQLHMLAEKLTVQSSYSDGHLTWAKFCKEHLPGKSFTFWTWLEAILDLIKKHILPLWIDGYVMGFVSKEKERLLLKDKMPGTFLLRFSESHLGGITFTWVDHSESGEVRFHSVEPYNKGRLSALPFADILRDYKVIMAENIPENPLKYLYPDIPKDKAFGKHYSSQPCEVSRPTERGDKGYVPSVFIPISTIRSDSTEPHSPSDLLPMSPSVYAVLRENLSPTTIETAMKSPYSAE
Procedure: (§1) The assays of the invention can be conducted as an ELISA assay, using a 96-well microplate format or a larger format if desired. In one embodiment, a phosphotyrosine-containing receptor peptide is incubated with a protein which contains an SH2 domain (e.g., a STAT polypeptide) to provide opportunity for the SH2 domain containing protein to bind the peptide. The peptide is preferably bound to a tag, e.g., biotin, at the amino terminus of the peptide. There can be a spacer between the tag and the peptide. The solution is placed in wells of a 96-well microplate that are coated with a tag binder, e.g., streptavidin. Reduction of background is achieved by incubating, in a separate reaction, a primary antibody specific for the SH2 domain containing protein and a secondary antibody specific for the first antibody which is to bind to the SH2 domain containing protein. The secondary antibody has conjugated to it a substrate for detection. The antibodies bind and form a binding pair of antibodies Ab1 and Ab2. Ab1 remains available to bind the SH2 domain containing protein for which it is specific. Ab2 remains conjugated to a substrate for chemiluminescence detection later.
(§2) The solution containing binding pairs of primary and secondary antibodies bound together is then added to the microwells that already contain the bound streptavidin, biotinylated receptor peptide and an SH2 domain containing protein bound to the receptor peptide. […]
(§3) An alternate method for conducting the assay involves preincubating the SH2 domain containing protein with the primary antibody that is specific for the SH2 domain containing protein. […] After allowing time for the SH2-antibody complex to bind the biotinylated peptide bound to streptavidin, a second antibody specific for the first antibody is added, and the presence of the second antibody is detected as before, using a chemiluminescence reaction with either alkaline phosphatase detection or horse radish peroxidase detection. […]

STAT1 = target: T3, STAT1 (Homo sapiens, UniProt P42224); experiment: Chemiluminescence binding assay, signal to noise, STAT1; set-up: key: high signal relative to background = + + + +
T3 sequence (P42224 1-750): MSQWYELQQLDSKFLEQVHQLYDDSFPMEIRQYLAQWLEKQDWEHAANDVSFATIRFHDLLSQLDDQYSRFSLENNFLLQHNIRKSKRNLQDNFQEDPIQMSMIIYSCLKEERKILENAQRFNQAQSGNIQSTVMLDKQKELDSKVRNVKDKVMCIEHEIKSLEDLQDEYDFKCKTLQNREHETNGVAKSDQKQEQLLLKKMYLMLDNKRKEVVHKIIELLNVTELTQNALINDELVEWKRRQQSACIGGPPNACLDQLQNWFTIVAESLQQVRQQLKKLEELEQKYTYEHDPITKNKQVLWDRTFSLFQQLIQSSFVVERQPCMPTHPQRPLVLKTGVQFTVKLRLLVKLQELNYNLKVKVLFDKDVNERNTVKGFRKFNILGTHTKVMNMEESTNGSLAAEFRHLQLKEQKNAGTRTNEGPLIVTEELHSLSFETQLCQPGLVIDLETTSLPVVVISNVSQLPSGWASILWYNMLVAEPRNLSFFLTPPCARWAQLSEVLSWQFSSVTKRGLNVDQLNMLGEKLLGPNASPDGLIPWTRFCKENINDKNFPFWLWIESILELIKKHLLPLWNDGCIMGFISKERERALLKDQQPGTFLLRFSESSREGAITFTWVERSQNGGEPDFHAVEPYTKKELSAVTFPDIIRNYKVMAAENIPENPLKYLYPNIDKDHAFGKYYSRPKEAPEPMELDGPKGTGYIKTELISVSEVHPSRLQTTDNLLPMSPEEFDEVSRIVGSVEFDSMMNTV
Procedure: as §1, §2, §3

STAT4 [2] = target: T4, STAT4 (UniProt Q14765 1-748, limits assumed); experiment: concentration at 50% binding of the STAT protein to the phosphotyrosine peptide (Example 4)
T4 construct: also called STAT4 polypeptide
T4 sequence (looked up): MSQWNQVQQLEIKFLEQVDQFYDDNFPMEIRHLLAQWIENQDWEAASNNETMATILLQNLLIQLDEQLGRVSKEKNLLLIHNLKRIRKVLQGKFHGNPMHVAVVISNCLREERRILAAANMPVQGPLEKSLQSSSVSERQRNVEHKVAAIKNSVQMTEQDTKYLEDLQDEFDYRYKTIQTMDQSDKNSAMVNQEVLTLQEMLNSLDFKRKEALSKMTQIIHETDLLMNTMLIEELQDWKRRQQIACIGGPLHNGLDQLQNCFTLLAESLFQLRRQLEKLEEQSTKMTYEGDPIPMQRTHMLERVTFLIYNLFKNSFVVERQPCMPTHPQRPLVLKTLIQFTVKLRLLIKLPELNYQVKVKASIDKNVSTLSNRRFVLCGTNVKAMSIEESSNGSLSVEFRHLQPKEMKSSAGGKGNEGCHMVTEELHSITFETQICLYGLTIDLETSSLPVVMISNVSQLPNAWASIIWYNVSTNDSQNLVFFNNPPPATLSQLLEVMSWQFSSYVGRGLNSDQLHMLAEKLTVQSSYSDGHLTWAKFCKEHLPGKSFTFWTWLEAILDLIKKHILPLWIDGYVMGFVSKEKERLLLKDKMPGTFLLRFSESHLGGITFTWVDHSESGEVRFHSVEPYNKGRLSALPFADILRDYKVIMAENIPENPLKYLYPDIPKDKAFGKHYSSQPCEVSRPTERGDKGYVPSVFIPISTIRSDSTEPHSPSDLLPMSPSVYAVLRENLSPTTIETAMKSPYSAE

STAT4 [3] = target: T4, STAT4; experiment: binding affinity of the phosphorylated receptor peptide for STAT4; method not stated at the table (paragraph 32 speaks of IC50)

Ac-Y^PVPWQ-NH2 (peptide)
BINDING AFFINITY (STAT6): 1.5 µM

GY^PDMPHVL: phosphotyrosine receptor peptide for STAT4 (also binds STAT1) (G[pY]DMPHVL)
signal relative to background, STAT4 (STAT4 [1]; Ab1/Ab2 preincubation): + + + + | signal relative to background, STAT4 (STAT4 [1]; STAT4/Ab preincubation): + + + + | signal relative to background, STAT4 (STAT4 [1]; Standard assay): + + | signal relative to background, STAT1 (STAT1; Ab1/Ab2 preincubation): + + + + | signal relative to background, STAT1 (STAT1; STAT1/Ab preincubation): + + + + | signal relative to background, STAT1 (STAT1; Standard assay): + +

ASSGEEG[pY]KPFQDLI [ASSGEEGY^PKPFQDLI]
IC50 (STAT4 [2]): 30 µM

B1: SHEGY^PLPSNID (IL-12 receptor) (peptide)
peptide: SHEG[pY]LPSNID
notes: Native IL-12 receptor-derived phosphopeptide; also called IL-12 receptor peptide
BINDING AFFINITY (STAT4 [3]): 2.9 µM

SHEG[pY]LPNNID [SHEGY^PLPNNID]
BINDING AFFINITY (STAT4 [3]): 0.51 µM

SHEG[pY]LPHNID [SHEGY^PLPHNID]
BINDING AFFINITY (STAT4 [3]): 0.7 µM

SHEG[pY]LPWNID [SHEGY^PLPWNID]
BINDING AFFINITY (STAT4 [3]): 0.93 µM

SHEG[pY]LPQNID [SHEGY^PLPQNID]
BINDING AFFINITY (STAT4 [3]): 0.39 µM
